# Measured values reported in the DeepSol protein solubility set.
# Test: soluble on expression in E. coli; label from the status in PepcDB or PDB records
row,Sequence,soluble on expression in E. coli
1,MRLRHKPYAMDRINEYSHIVIGNPEERAGSWKEVFGNEQPIHIEVGTGRGRFMYDMAKANPHINYIGIEKFTSVVVDALDKLIEEELPNLKLINKDAEDLTVFFAKGEIDRVYLNFSDPWPKKRHTKRRLTYKTFLRNYEEVLVEGGEIHFKTDNQGLFEYSLMSMAEYGMLLTYLSLDLHNSDFEGNIMTEYEEKFSSKGHRIYRVEAKYRTEPMQ,not soluble
2,MGSDKIHHHHHHMIDWLYSYPPLYPGILLKRYKRFFADVQLASGEVVTAHCPNTGPMTGVSTLGSVVQLSKSANPKRKLAYTLELIQVHDNEPTWVGVNTALPNQIVKLALAKYLFPELGSYNHIKSEVVYGVDKKSRVDFFLTGSDTERPIYLEVKNTTWAKGTLALFPDTETTRGQKHLRELMTLLPQTRSVMLYFINRGDCTEFAPGDSTDPIYGKLLREAIALGLEVLPCRFDVTPEGIRYLGLAKLVI,not soluble
3,MGSDKIHHHHHHLKLTKNIVSIVTDVILNESEAIKNLVNHINDDFQHIIDAILSCKGRVVITGIGKSAIIGNKIVATLNSTGTPALFMHAADAIHGDLGMIQGGDVVICISKSGNTPEIKVLVPLIKNRGTILIGMVGNVDSYLAVQSDYVLNVTVEREACPNNLAPTTSTTATLVMGDALAVALLECRNFSSEDFAQLHPGGALGKQLYLRVNDVYTANEKPMVAPDATVKDVILEISSKRLGAAAVVDSAGILQGIITDGDLRRMLNAHDSFKQLCAADIMTKAPKTIDADEFAASAMLLMQSKNITQLIVMKNENFAGFIHIHDLLKEGIV,not soluble
4,MRIAVIDYDKCNPDKCGHFLCERVCPVNRMGGEAIIIDEENNRPIIQEASCTGCGICVHKCPFKAISIVNLPEQLEEDCVHRYGVNAFVLYRLPVVKDGMVVGIVGPNGTGKTTAVKILAGQLIPNLCCDNDSWDDVIKAFRGSELQNYFEKLKNGEIKPVVKPQYVDLLPKAVKGKVGELLKKVDETGKFEEIVKVLELEKVLEREIDQLSGGELQRVAIAAAILRKAHFYFFDEPSSYLDIRQRLNVARVIRRLADEGKAVLVVEHDLAVLDYLSDIVHIVYGEPGVYGIFSQPKGTRNGINEFLQGYLKDENVRFRPYEIKFTKLSERVEVERETLVEYPRLVKDYGSFKLEVEPGEIRKGEVIGIVGPNGIGKTTFVKMLAGVEEPTEGKVEWDLTVAYKPQYIKAEYEGTVYDLLSKIDASKLNSNFYKTELLKPLGIIDLYDKNVNELSGGELQRVAIAATLLRDADIYLLDEPSAYLDVEQRLATSRAIRHLMEKNEKTALVVEHDVLMIDYVSDRLIVFEGEPSKYGKALPPMGMREGMNRFLASVGITFRRDPDTGRPRANKEGSVKDREQKEKGEYYYTD,soluble
5,MQVTHKILKIPSKGYRKILSLLNEKGQARLIGGCVRDALLDLLHNKTNKEEFEGDTERRIAMYINVREDSSTGSTYKLPLEASYPRDRLEKGSCDIDIATNLTPSEVTNILSGAKIKTIPTGLKFGTITATLNNEKFEITTLRKDIECNGRHAKVIFTNDFAEDAARRDFTINALSYCPFKNEIYDYFEGFKDLQQEKVVFIGEALDRIKEDYLRILRFFRFSSYYANQLDDGNFKACKALKDGLKTLSRERIKSEMDKIIVSKRAAQILKAMFEIGILELIFSIQNYEIKFFEQANDFKLELVTRYALLLYCQKDLNLKVFLDWKFSKHEAMQILSITNFLNDAKFNMKKIWFEKKNYKEYLLAARIIGKLNHSQVKEFILKYDALLRPKFQVNGNDLLNMNIEKKKIGAKLEYLKNFWIEQDFKPSKLELLAKL,soluble
6,MGSDKIHHHHHHMKAVVIVKRAGQERPDLEYQTVPDPKPEPNELLVSVRAAGINRIDLHRSTAHGAPAAGKPLVAGLEMSGEVVAVGENVHDFRTGDKVYGMTTGSYAELATIDHRYALPVPPAFSFDQATAVATVYPTAHNALVTNGQFAAGKTVLIQGVSSAVGIATLQIAKAMGAKCVVGTGRPNANIGKLAEAGLDRFLLNGTDNIPAEIMAMTDGRGVDTIVDMVGGPTIADNLESVALAGRIVSVGWVGGTKGEIDLDTLARKRVTLVGVSFRTRTVEEKTELFAQFRRDVYPLFVNGTLVPYIAATYHLSEAAAAQDAMAEDKHFGKILLHP,not soluble
7,MGSDKIHHHHHHMMKKKWYIVLTMSGYEEKVKENIEKKVEATGIKNLVGRIVIPEEVVLDATSPSERLILSPKAKLHVNNGKDVNKGDLIAEEPPIYARRSGVIVDVKNVRKIVVETIDRKYTKTYYIPESAGIEPGLRVGTKVKQGLPLSKNEEYICELDGKIVEIERMKKVVVQTPDGEQDVYYIPLDVFDRDRIKKGKEVKQGEMLAEARKFFAKVSGRVEVVDYSTRKEIRIYKTKRRKLFPGYVFVEMIMNDEAYNFVRSVPYVMGFVSSGGQPVPVKDREMRPILRLAGLEEYEEKKKPVKVELGFKVGDMVKIISGPFEDFAGVIKEIDPERQELKVNVTIFGRETPVVLHVSEVEKIE,not soluble
8,MVMLTKCLSSKDNIMSLTCMPALFLGHGSPMNVLDDNDYTRAWRRLGEALPRPQAIVVVSAHWYTRGTGVTAMERPQTLHDFGGFPQALYDTHYPAPGSPALAQRLVELLAPVPVALDKEAWGFDHGSWGVLIKMYPNADIPMVQLSVDSTKPAAWHFEVGRKLATLRDEGVMLVASGNVVHNLRTVRWHGDNIPYPWAASFNDFVKANLTWQGPVEQHPLVNYLQHEGGALSNPTPEHFLPLLYVLGAWDGKEPITIPVDGIEMGSISMLSVQVGLEHHHHHH,not soluble
9,MAKSFNQAASELTDIFPNISLTGFDGVNYPVTVNCPMHGNVRYSTFNALIKSKYGCPECAKMSKTQTPPNVGKPLLILDTTTNETLTFPSVTAAGAALGVHFQQINHRLKGRTSPDNLISNRYKVLGYDR,not soluble
10,MRKEEVLALLRSRWPELCALGVAELYLFGSLARGEARPRSDVDLLVAFATPPGFEGYWRVKEFLESLLGRPVDLVMKGALKPWAVSEVLGEAVRVA,soluble
11,GSEAWMNFYLEEFNLSIPDSGPYGITSSEDGKVWFTQHKANKISSLDQSGRIKEFEVPTPDAKVMCLIVSSLGDIWFTENGANKIGKLSKKGGFTEYPLPQPDSGPYGITEGLNGDIWFTQLNGDRIGKLTADGTIYEYDLPNKGSYPAFITLGSDNALWFTENQNNSIGRITNTGKLEEYPLPTNAAAPVGITSGNDGALWFVEIMGNKIGRITTTGEISEYDIPTPNARPHAITAGKNSEIWFTEWGANQIGRITNDNTIQEYQLQTENAEPHGITFGKDGSVWFALKCKIGKLNLNE,soluble
12,MQQFATLSLASLLMLGTFTAFAAENGDAPASGWHIDDSATKGASGQQGMFDGVRLTEQQRQQMRDLMHQSRQDKPAFNTEDVKAMHKLVTAETFDEAAVRAQITRMMSVQIERQIQMTRVRNQMYNLLTPAQKEILELKHKQRMKEMQQQISMFNQMVAPSSGTTNHTETDSPELEHHHHHH,soluble
13,MSKLEELDIVSNNILILKKFYTNDEWKNKLDSLIDRIIKAKKIFIFGVGRSGYIGRCFAMRLMHLGFKSYFVGETTTPSYEKDDLLILISGSGRTESVLTVAKKAKNINNNIIAIVCECGNVVEFADLTIPLEVKKSKYLPMGTTFEETALIFLDLVIAEIMKRLNLDESEIIKRHCNLL,soluble
14,MNVAKNRKEKIAGLFLMCPGSGLDMNFVNTIQPGALQYLMKKGSINYPASKNGYPALLTVECLEEFLNTDISKTSPKVIDIQCPVLTVHGIEDNIVPVENSKKLMQRMASTYKDFHRIPGVDHNFDLDEEVLKRLGQLMDVIRENESKKLKAKI,not soluble
15,MQLTAKASLTNALLISICTPDFKGDEATESLAELARLVTTLGFKVVGTQSQKQSSTKKVNVLGLGKLAEIAHLTGNQGEVEDMEEVEDLSVGEQTDDVEFMVNSSDIPSDNLPFACADVVVFDCDLSPSQLRNVENQLGVEVFDRTGIIIEIFSRHARTKTAKLQVEIARLNYVAPRLRETSCGDKERQMGKGAGETTLELNRRAVRDQLAELKRELVSVQHEMKGRRTQRSELFCVALVGYTNAGKSSMMRAITGSDVEGENKLFATLDTTVRALFPITQPRILVSDTVGFIKKLPHDLVASFHSTLAEAQDASLLLYVVDASDPSFRAQLDVVHEVLDEVGVEDSKKLLVLNKSDQLSIEQQQALMEEFPNAMMTSARNPADVSKLHKYIVGIAQEEMIEEEIIVPYTANGIIGEIRSRMSVTKEEYENSHIKLTVRSNAIDLARLKKRMLSLLEHHHHHH,not soluble
16,MSLHNNIDAFTLKPRHVEQIRQALPEVAITVSASDSDFMDRLPDAEYALVWVFKPEWYATAPRLKALFTPAAGRDWVAADPSGRVMTCHGSFHGRIMRESLLSMMLYFNRRLGQSLEDQGRRMWGRPDYSGCVGLFSQRVMIVGLGALGQSMAELLKAFGAHVTGVKRNPESFAGSPCVDRVISFDALEEALPEADHVVLLLPGGTATDGIFTARHFNAMRPGAYLYNLGRGNCYREEDLVAALEDGRLAGAGLDVFAEEPLPASSPLWEQRNVLITPHSSAISREYLDLFIQEWLETLRKGAPQNEGHHHHHH,not soluble
17,MCANIGVDPLASNKGFWAELLGIGDFYYELGVQIIEVCMLTRSHNGGLISLQELCNHLRQRRKKDREAVTEDDCLRAISKLKVLGSGFEVITIGKKKLVRSVPTELNKDHNQILELAQGQGFVIVEEVQRRLSWTSGRVIDALETLLEEGLAMIDNGHKDGKCRYWFPCVSSVYSSIGSDT,soluble
18,GAKPNQKVIAEILKYPSPGKNPEAKVVKVLGDLDDPSIDLPSVIVKHDLPEPGEFPEEVIREANAIPARVRKKDLVGRKDLRDKVIVTIDGEDAKDFDDAISVEKLPNGNYLLGVHIADVSHYVKEGSALDQEAFKRGTSVYLIDTVIPMLPFRLSNGICSLVEGKDRLTMSVEMEIDRDGRVVRYDVYPSVIKSKKRMIYERVNEFLEDPSSMKEYEPFKDLIYNAVELAEILREARRKRGAILDIESDEVKVILDENGQVVDIVPRKRGIAEKLIEEFMIRANETVAEIFDHAGLPFMYRVHEEPDPETIFQLKNYLEAMGIRAKFSHKIHPGMLQKLLEKVKDHPLRSSVERLLVRSMKRAMY,soluble
19,MLTVHHLNQSRSQRILWALEELALPYQIVRYQREKTMLAPPALKKVHPLGKSPVIEDHGMVIAESGAILEYLQDTYDSIGRFKPADAQGKQHYRFWLHYAEGSLMPLLLMRLLFTSLGKPPVPLGLRTLGGVIGKGAQKAYLNPQLETHARFIDGHLANHPWFAGEQLSMADIQMSFPLFALLARGGIAHLDHINAWKARVEMRPAWQRAIQQGGPFTIPGG,not soluble
20,MSAKHPIIAVTGSSGAGTTTTSEAFRKMFNMMSIKPAWVEGDSFHRFTRPEMDVEIRKAREQGRHISYFGPQANDFPTLEEFFRQYGKVGTGQVRRYLHTFDEAVPYNQMPGTFTPWQSLPENSDVLFYEGLHGGVVDGDVNVAQHVDFLIGMVPIVNLEWIQKYVRDTRDRGHSREAVMDSIVRSMDDYLKFITPQFSRTHINFQRVPTVDTSNPLNAKGIPTLDESFVVIRFRGIKNVDFPYLLAMIDGSFMSRHNTIVVPGGKMSFAMDLIVRPLLQQLIETGKIG,not soluble
21,MSRPLGFIGYEFGDDEMFVQQMIEKKSNAEQAKMLEQQKKMLECTETMPEESEPVPMKCLDFEEAFQSESVSKGYESPYKNISFLKEDAVTVNTMSHCPADDIAKLIRNIQNSVYTLGIEEARQCRRGKLLNVLKPTGSASPRYLQPTPPKNVAEETTGSQ,not soluble
